Data from patent publication US20050048622A1 (Genentech, published 2005).

B1: RSE.Fc (Fc fusion, UniProt Q06418 41-428, looked up)
chain: AGLKLMGAPVKLTVSQGQPVKLNCSVEGMEEPDIQWVKDGAVVQNLDQLYIPVSEQHWIGFLSLKSVERSDAGRYWCQVEDGGETEISQPVWLTVEGVPFFTVEPKDLAVPPNAPFQLSCEAVGPPEPVTIVWWRGTTKIGGPAPSPSVLNVTGVTQSTMFSCEAHNLKGLASSRTATVHLQALPAAPFNITVTKLSSSNASVAWMPGADGRALLQSCTVQVTQAPGGWEVLAVVVPVPPFTCLLRDLVPATNYSLRVRCANALGPSPYADWVPFQTKGLAPASAPQNLHAIRTDSGLILEWEEVIPEAPLEGPLGPYKLSWVQDNGTQDELTVEGTRANLTGWDPQKDLIVRVCVSNAVGCGPWSQPLVVSSHDRAGQQGPPHSRTS
notes: Control; also called control fusion protein; control receptor RSE.Fc; not shown: Fc part

What was measured:
ErbB4.Fc = ErbB4.Fc (UniProt Q15303); assay: displacement of ^125I-NRG3^EGF.Fc from immobilized ErbB4.Fc, 96-well plate
human ErbB3 receptor = biological target: T1, human ErbB3 receptor (human, UniProt P21860 20-1342); assay: FACS on K562^erbB3 cells
T1 construct: whole, on cells; also called HER3; K562^erbB3 cells

human ErbB4 receptor = biological target: T2, human ErbB4 receptor (human, UniProt Q15303 26-1308); assay: FACS on K562^erbB4 cells
T2 construct: whole, on cells; also called HER4; K562^erbB4 cells

human ErbB2 receptor = biological target: T3, human ErbB2 receptor (human, UniProt P04626 23-1255); assay: FACS on K562^erbB2 cells
T3 construct: whole, on cells; also called HER2; K562^erbB2 cells

Sequence of ErbB4.Fc (Q15303 26-651 limits assumed): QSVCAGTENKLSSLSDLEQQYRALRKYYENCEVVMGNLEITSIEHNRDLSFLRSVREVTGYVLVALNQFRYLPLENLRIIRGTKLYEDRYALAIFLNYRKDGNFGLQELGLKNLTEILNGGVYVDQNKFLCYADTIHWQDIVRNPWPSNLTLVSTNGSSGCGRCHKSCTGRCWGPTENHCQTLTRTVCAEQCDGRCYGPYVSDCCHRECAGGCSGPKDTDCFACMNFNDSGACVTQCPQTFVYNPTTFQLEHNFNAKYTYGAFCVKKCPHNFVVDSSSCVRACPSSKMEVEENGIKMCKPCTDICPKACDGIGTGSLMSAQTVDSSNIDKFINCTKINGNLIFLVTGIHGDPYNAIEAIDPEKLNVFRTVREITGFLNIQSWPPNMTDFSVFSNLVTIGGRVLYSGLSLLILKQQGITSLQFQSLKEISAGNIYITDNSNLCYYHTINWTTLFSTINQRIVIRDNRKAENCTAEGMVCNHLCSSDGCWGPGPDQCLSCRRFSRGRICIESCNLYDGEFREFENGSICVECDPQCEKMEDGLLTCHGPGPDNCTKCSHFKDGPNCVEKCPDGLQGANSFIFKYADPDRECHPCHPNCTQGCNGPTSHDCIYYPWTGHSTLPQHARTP
T2 sequence (Q15303 26-1308): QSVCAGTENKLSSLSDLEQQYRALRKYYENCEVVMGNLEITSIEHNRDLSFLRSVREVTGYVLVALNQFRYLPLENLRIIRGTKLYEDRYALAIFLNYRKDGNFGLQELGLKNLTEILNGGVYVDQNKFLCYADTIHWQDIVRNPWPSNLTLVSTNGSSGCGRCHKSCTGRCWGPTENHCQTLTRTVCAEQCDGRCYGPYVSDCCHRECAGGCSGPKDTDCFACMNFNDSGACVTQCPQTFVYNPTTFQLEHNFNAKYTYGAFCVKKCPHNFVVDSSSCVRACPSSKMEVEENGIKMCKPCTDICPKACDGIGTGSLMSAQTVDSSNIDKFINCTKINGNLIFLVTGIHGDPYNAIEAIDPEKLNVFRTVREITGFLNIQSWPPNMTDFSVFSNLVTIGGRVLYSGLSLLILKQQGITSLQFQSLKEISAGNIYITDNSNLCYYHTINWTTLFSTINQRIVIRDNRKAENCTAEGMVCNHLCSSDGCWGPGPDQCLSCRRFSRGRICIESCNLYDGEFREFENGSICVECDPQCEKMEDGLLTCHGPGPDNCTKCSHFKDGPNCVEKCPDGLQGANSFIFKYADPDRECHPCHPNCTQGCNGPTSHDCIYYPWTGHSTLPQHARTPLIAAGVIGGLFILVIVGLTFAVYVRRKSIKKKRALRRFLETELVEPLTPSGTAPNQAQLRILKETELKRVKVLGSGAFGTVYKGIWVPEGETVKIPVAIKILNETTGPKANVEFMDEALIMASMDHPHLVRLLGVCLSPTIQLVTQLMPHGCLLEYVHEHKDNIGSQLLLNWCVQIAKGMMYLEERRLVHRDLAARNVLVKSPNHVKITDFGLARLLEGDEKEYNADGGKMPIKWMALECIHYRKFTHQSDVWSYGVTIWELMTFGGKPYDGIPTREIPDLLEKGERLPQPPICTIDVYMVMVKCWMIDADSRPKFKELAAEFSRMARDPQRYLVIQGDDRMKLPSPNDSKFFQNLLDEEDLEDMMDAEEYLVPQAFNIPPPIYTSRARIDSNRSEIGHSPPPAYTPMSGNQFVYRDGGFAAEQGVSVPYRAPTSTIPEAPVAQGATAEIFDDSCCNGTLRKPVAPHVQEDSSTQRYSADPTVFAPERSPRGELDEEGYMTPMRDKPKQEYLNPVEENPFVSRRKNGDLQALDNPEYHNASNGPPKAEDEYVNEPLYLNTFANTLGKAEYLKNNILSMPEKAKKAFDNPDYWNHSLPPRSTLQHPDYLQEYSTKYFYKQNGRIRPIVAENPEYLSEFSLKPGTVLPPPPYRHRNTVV
T1 sequence (P21860 20-1342): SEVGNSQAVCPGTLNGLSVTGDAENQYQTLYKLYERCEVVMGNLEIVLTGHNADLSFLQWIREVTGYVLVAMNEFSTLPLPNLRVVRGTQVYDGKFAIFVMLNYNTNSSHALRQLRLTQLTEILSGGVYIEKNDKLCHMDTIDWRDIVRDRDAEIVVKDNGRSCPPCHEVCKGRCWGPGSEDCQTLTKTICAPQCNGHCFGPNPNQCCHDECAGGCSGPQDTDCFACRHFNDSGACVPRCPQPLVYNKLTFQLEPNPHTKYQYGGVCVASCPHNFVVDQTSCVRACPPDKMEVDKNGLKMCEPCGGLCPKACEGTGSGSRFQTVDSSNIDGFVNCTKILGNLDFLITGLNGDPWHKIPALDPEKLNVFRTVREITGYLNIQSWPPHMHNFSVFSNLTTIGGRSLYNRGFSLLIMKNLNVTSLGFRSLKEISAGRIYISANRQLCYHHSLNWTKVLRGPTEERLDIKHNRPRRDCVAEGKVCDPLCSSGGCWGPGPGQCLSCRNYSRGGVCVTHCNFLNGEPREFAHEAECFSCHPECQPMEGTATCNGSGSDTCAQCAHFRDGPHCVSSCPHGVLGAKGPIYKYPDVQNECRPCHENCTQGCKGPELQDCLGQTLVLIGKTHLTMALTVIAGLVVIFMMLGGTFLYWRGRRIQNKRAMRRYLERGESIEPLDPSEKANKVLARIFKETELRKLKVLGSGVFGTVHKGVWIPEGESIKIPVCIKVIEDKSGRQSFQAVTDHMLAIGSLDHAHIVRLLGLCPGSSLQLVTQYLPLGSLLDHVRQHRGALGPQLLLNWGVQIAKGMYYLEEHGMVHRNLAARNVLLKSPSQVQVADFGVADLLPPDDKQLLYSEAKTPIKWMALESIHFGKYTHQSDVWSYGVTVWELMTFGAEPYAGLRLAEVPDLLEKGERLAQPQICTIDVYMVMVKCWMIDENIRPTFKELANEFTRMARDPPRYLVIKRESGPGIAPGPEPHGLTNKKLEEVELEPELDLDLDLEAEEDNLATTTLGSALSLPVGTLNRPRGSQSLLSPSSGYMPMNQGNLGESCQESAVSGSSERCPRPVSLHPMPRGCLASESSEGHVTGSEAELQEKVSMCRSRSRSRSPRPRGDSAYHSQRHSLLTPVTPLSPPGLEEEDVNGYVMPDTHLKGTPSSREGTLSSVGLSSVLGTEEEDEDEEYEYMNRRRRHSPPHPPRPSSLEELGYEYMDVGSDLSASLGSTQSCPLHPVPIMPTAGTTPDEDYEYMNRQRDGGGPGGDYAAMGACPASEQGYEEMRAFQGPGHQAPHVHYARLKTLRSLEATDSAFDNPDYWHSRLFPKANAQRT

| Molecule | Ki (ErbB4.Fc) | binding result (human ErbB3 receptor) | binding result (human ErbB4 receptor) | binding result (human ErbB2 receptor) |
| --- | --- | --- | --- | --- |
| NRG1^EGF (rHRGβ1 177-244) (from UniProt Q02297 177-244) (ligand) | 1 nM |  |  |  |
| B1 |  | no binding | no binding | no binding |
